Source: patent US20260209362A1 (VIB VZW, published 2026)

What was measured:
[1] = target: T1, biotinylated recombinant human IL-12Rβ2 (human, UniProt Q99665 24-622, random biotinylated); assay: BLI, P.E., off-rate ranking
T1 construct: Recombinant protein produced in-house; also called hIL-12RB2; human IL-12RB2
T1 sequence: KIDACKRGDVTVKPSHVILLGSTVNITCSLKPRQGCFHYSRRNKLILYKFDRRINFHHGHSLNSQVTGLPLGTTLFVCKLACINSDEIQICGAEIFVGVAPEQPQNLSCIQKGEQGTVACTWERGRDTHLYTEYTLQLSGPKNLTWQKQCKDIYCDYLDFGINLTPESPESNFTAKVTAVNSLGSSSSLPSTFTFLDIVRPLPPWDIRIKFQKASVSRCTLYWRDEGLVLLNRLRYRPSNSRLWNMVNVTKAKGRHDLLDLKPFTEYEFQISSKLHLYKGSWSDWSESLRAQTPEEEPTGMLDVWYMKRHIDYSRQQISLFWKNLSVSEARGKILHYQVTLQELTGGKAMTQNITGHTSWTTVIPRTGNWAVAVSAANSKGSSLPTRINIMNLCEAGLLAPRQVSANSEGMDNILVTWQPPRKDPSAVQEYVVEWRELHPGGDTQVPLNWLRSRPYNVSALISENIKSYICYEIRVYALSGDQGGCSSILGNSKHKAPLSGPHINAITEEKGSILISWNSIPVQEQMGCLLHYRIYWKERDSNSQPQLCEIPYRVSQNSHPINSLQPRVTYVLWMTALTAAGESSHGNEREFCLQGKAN

[2] = target: T1, biotinylated recombinant human IL-12Rβ2; assay: ELISA, P.E., biotinylated antigen
[3] = target: T2, biotinylated recombinant mouse IL-12Rβ2 (mouse, UniProt P97378 24-637, random biotinylated); assay: ELISA, P.E., biotinylated antigen
T2 construct: Recombinant protein produced in-house; also called mIL-12RB2; mouse IL-12RB2
T2 sequence: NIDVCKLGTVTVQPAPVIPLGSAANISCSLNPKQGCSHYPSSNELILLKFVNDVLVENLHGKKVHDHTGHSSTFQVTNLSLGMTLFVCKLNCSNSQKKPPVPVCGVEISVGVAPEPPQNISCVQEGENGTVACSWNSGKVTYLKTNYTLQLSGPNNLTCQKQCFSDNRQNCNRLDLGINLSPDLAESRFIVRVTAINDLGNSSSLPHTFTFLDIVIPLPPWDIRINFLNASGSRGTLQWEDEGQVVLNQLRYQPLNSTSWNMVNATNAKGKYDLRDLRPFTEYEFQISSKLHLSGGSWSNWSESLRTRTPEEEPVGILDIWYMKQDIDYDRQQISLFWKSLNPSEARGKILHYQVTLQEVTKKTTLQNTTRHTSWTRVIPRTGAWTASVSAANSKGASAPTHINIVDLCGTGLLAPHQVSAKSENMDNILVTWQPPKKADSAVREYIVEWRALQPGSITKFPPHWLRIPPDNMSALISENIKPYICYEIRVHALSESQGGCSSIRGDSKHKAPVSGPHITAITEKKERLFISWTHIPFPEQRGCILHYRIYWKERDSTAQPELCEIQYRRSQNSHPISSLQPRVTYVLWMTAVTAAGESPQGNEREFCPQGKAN

Row | Binder | Response [1] | koff [1] [s⁻¹] | ELISA hIL-12RB2/control [2] | ELISA mIL-12RB2/control [3]
1 | anti-IL-12Rβ2 VHH clone 3CRHS31 (clone ID 20418) (VHH, not shown: small tags and cut ends, periplasmic extract) VHH: QVQLQESGGGLVQAGGSLRLSCAASGFTFSTYAMSWVRQAPGKGLEWVSSVNSGGLSTDYADSVEGRFTISRDDAKNMLFLQMNSLKPEDTARYYCAKYEDCSDYVCDRAGYWGQGTQVTVSS | 0.234 | 0.00429 | 10.9 | 1.16
2 | anti-IL-12Rβ2 VHH clone 3CRHS51 (clone ID 20421) (VHH, not shown: small tags and cut ends, periplasmic extract) VHH: QVQLQESGGGLVQPGGSLRLSCAASGFTFSTYAMSWVRQAPGKGLEWVSAVNSGGLSTDYADSVEGRFTISRDDAKNMLFLQMNRLKPEDTARYYCAKYEDCSDYVCDRAGYWGQGTQVTVSS | 0.327 | 0.0043 | 12 | 0.946
3 | anti-IL-12Rβ2 VHH clone 3CAH60 (clone ID 20361) (VHH, not shown: small tags and cut ends, periplasmic extract) VHH: QVQLQESGGGLVQPGGSLILSCVASGFAMDYLTMGWSREAPRNEREDISCIDTSGRSTDYLDSVKGRFTISRDNAKNTLYLHMNDLKPEDTAEYYCLASTSYCGAGYEYRGQGTQVTVSS | 0.59 | 0.00517 | 3.91 | 1.9
4 | anti-IL-12Rβ2 VHH clone 2CRH62 (clone ID 20368) (VHH, not shown: small tags and cut ends, periplasmic extract) VHH: QVQLQESGGGLVQPGGSLRLSCVESGRTFTVYDMGWFRQAPGKEREIVAAISADGATSIYQDSVKGRFTISRDNDAKNTVYLQMNSLKPEDTAVYYCAAGRSLIYNLYRANNTDYWGQGTQVTVSS | 0.643 | 0.00622 | 3.51 | 0.868
5 | anti-IL-12Rβ2 VHH clone 3CAH32 (clone ID 20357) (VHH, not shown: small tags and cut ends, periplasmic extract) VHH: QVQLQESGGGLVQPGGSLRLSCAASGSILRINLMGWYRQVPGKQRELVAEMSTGGSTTYVDSVKGRFTISRDNAKNTVYLQMNSLKPEDTAVYYCNAKAWQLGRLENDDWGQGTQVTVSS | 0.607 | 0.00419 | 4.31 | 0.842
6 | anti-IL-12Rβ2 VHH clone 3CAHS102 (clone ID 20399) (VHH, not shown: small tags and cut ends, periplasmic extract) VHH: QVQLQESGGGLVQPGGSLRLSCAASGSILRINLMGWYRQVPGKQRELVAEMSTGGSTTYVDSVEGRFTISRDNAKNTVYLQMNSLKPEDTAVYYCNAKAWQLGRLENDDWGQGTQVTVSS | 0.323 | 0.00267 | 3.54 | 1.02
7 | anti-IL-12Rβ2 VHH clone 3CAHS79 (clone ID 20398) (VHH, not shown: small tags and cut ends, periplasmic extract) VHH: QVQLQESGGGLVQPGGSLRLTCVASGFPFSTHAMSWVRQPPGKGREWISAINSGGDSTDYADSVMGRFTISRDNAKNTVYLQMNSLKSEDTAVYYCAKYEDCSDYDCSSRASWGQGTQVTVSS | 0.268 | 0.00434 | 3.71 | 1.04
8 | anti-IL-12Rβ2 VHH clone 3CAHS171 (clone ID 20407) (VHH, not shown: small tags and cut ends, periplasmic extract) VHH: QVQLQESGGGLVQPGGSLRLTCVASGFPFSTHAMSWVRQPPGKGREWISAINSGGDSTDYADSVMGRFTISRDNAKNTVYLQMNSLKSEDTAAYYCAKYEDCSDYDCSSRASWGQGTQVTVSS | 0.195 | 0.00431 | 3.27 | 0.961
9 | anti-IL-12Rβ2 VHH clone 3CRH28 (clone ID 20380) (VHH, not shown: small tags and cut ends, periplasmic extract) VHH: QVQLQESGGGLVQPGGSLTLSCAASGFTFSSNAMSWVRQAPGKGLEWVSSISSGGGTTYYTDSVKGRFTTARDNAKNTLYLRMNSLKPEDTAVYYCSKSSTGSGSRGQGTQVTVSS | 0.4 | 0.00428 | 3.64 | 0.975
10 | anti-IL-12Rβ2 VHH clone 3CAH28 (clone ID 20356) (VHH, not shown: small tags and cut ends, periplasmic extract) VHH: QVQLQESGGGLVQSGASLRLSCAASERTLSGYAMGWFRQAPGKEREFVAAIRWSGSSTYYAESVEGRFTISRDNAKNTVYLQMNILKPEDTAVYYCAAGSDYADEYDYWGQGTQVTVSS | 0.576 | 0.00483 | 7.57 | 0.4
11 | anti-IL-12Rβ2 VHH clone 3CAHS41 (clone ID 20394) (VHH, not shown: small tags and cut ends, periplasmic extract) VHH: QVQLQESGGGLVQAGDSLRLSCAASGRTFDTYIVGWFRQAPGKEREFVSALSWSDDTTIRDDSLRGRFTISRDNAKNTVYLLMNSLKPEDTAVYYCAAKAKPPAATWSSYRNREWYDYWGQGTQVTVSS | 0.609 | 0.00441 | 8.77 | 1.35
12 | anti-IL-12Rβ2 VHH clone 3CAHS180 (clone ID 20410) (VHH, not shown: small tags and cut ends, periplasmic extract) VHH: QVQLQESGGGLVQAGDSLRLSCAASGRTFDTYIVGWFRQAPGKEREFVSALSWSDDTTIRDDSLRGRFTLSRDNAKNTVYLLMNSLKPEDTAVYYCAAKAKPPAATWSSYRNREWYDYWGQGTQVTVSS | 0.376 | 0.00265 | 4.78 | 1.19
13 | anti-IL-12Rβ2 VHH clone 3CRHS99 (clone ID 20427) (VHH, not shown: small tags and cut ends, periplasmic extract) VHH: QVQLQESGGGLVQPGGSLRLSCKASGFTFSTYAMSWVRQAPGKGLEWVSAINSGGLSTDYADSVEGRFTISRDDAKNMLFLQMNSLKAEDTARYYCAKYEDCSDYMCHRDRAGYWGQGTQVTVSS | 0.259 | 0.00405 | 3.13 | 0.908
14 | anti-IL-12Rβ2 VHH clone 3CRHS106 (clone ID 20429) (VHH, not shown: small tags and cut ends, periplasmic extract) VHH: QVQLQESGGGLVQPGGSLRLSCKASGFTFSTYAMSWVRQAPGKGLEWVSAVNSGGLSTDYADSVEGRFTISRDDAKNMLFLQMNSLKPEDTARYYCAKYEDCSDYMCHRDRAGYWGQGTQVTVSS | 0.297 | 0.00355 | 10.2 | 1.03
15 | anti-IL-12Rβ2 VHH clone 3CRH25 (clone ID 20378) (VHH, not shown: small tags and cut ends, periplasmic extract) VHH: QVQLQESGGGLVQAGDSLRLSCTASGHTFSRYTTIGWFRQAPGKDREFVAAIRWSGDITDYADAVKGRFTISRDNVKNTVYLQMNSLNPEDTAVYYCARGYSEYGVLSRNRGLYAYWGQGTQVTVSS | 0.523 | 0.00205 | 5.16 | 1.04
16 | anti-IL-12Rβ2 VHH clone 3CRHS77 (clone ID 20425) (VHH, not shown: small tags and cut ends, periplasmic extract) VHH: QVQLQESGGGLVQAGGSLRLSCTASGHTFSSYTTIGWFRQAPGKEREFVAAIGWSGDITDYADAVKGRFTISRHNVENTVYLQMNSLNPEDTAVYYCARGYSEYGVLSRNRGLYAYWGQGTQVTVSS | 0.551 | 0.00426 | 6.37 | 1.02
17 | anti-IL-12Rβ2 VHH clone 3CRH64 (clone ID 20386) (VHH, not shown: small tags and cut ends, periplasmic extract) VHH: QVQLQESGGGLVQAGGSLRLSCTASGHTFSRYTTIGWFRQAPGKDREFVAAIRWSGDITDYADAVKGRFTISRDNVKNTVYLQTNSLNPEDTAVYYCARGYSEYGVLSRNRGLYAYWGQGTQVTVSS | 0.726 | 0.00428 | 4.94 | 1.41
